PMC4837377 (Scientific Reports, 2016)

Biological target: PA (residues 1-716) of influenza A virus RNA-dependent RNA-polymerase (influenza A virus …, UniProt P31343 1-716)
Assay: SEC-SAXS
Details: both partners purified

B1: PB1(1-686) of influenza A virus RNA-dependent RNA-polymerase (domain or fragment)
chain: MDVNPTLLFLKVPAQNAISTTFPYTGDPPYSHGTGTGYTMDTVNRTHQYSEKGKWTTNTETGAAQLNPIDGPLPEDNEPSGYAQTDCVLEAMAFLEESHPGIFENSCLETMEVVQQTRVDRLTQGRQTYDWTLNRNQPAATALANTIEVFRSNGLIANESGRLIDFLKDVIESMDKEEMEITTHFQRKRRVRDNMTKKMVTQRTIGKKKQRVNKRSYLIRALTLNTMTKDAERGKLKRRAIATPGMQIRGFVYFVETLARSICEKLEQSGLPVGGNEKKAKLANVVRKMMTNSQDTELSFTITGDNTKWNENQNPRMFLAMITYITKNQPEWFRNILSIAPIMFSNKMARLGKGYMFESKRMKLRTQIPAEMLASIDLKYFNESTRKKIEKIRPLLIDGTASLSPGMMMGMFNMLSTVLGVSILNLGQKKYTKTTYWWDGLQSSDDFALIVNAPNHEGIQAGVDRFYRTCKLVGINMSKKKSYINRTGTFEFTSFFYRYGFVANFSMELPSFGVSGINESADMSIGVTVIKNNMINNDLGPATAQMALQLFIKDYRYTYRCHRGDTQIQTRRSFELKKLWEQTRSKAGLLVSDGGPNLYNIRNLHIPEVCLKWELMDEDYQGRLCNPLNPFVSHKEIESVNNAVVMPAHGPAKSMEYDAVATTHSWIPKRNRSILNTSQRGILEDE
stoichiometry N: 1
